The target in this assay is T1, Flag-HA-tagged ALOX12, purified (UniProt P18054 1-663).
T1 sequence (looked up): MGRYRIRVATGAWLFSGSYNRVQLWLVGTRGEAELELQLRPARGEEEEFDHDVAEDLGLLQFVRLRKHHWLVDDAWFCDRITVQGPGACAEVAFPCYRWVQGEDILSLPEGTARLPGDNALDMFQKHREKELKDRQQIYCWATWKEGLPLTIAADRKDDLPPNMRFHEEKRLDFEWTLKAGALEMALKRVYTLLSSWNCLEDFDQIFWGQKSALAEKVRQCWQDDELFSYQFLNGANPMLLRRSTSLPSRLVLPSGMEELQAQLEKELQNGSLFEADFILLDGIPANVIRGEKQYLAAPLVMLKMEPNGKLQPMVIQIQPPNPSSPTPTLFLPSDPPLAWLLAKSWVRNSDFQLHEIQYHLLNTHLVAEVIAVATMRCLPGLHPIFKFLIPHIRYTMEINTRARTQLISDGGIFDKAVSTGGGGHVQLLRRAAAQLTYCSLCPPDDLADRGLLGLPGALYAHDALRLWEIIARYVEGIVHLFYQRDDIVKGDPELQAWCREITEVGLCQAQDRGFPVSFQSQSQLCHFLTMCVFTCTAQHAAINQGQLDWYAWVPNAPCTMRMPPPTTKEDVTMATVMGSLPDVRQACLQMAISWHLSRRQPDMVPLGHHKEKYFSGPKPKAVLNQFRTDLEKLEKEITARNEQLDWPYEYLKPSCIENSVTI
The assay can be described thus: pull-down.

B1: GST-PHLDA2 Full-length (amino acids 1-152) (natural protein, human, UniProt Q53GA4 1-152, looked up)
chain: MKSPDEVLREGELEKRSDSLFQLWKKKRGVLTSDRLSLFPASPRARPKELRFHSILKVDCVERTGKYVYFTIVTTDHKEIDFRCAGESCWNAAIALALIDFQNRRALQDFRSRQERTAPAAPAEDAVAAAAAAPSEPSEPSRPSPQPKPRTP
On to B1, for which the binding result was “binds”.

B2: GST-PHLDA2-PH (amino acids 7-101) (domain or fragment, human, UniProt Q53GA4 7-101, looked up)
chain: VLREGELEKRSDSLFQLWKKKRGVLTSDRLSLFPASPRARPKELRFHSILKVDCVERTGKYVYFTIVTTDHKEIDFRCAGESCWNAAIALALIDF
As for B2, the binding result is recorded as “binds”.
